Data on twelve molecules can be found in patent US6828136B2, “Esterase enzymes, DNA encoding esterase enzymes and vectors and host cells incorporating same” (Genencor International, Inc., priority 1996, dated 2004).

Like-named read-outs stand apart in the source and are kept apart here.

One series concerns the target 38 kD esterase (Aspergillus awamori, UniProt Q9P979). Put plainly: API-20 enzyme test strip, substrate specificity for 38 kD esterase (Table 2). In kind it is biochemical, Aspergillus niger. The conditions noted are these: API-20 strip. As for the experimental part:
Purified 38 kD esterase was analyzed for a variety of biochemical activities with an API-20 enzyme test strip (BioMerieux Vitek) according to the manufacturers instructions. […] “+++” indicates very strong response, “++” indicates strong response and “+” indicates activity shown towards substrate. “−” means no activity detected.

For series [1] the following is noted: from A. niger CBS120.49 grown on oat spelt xylan; cited from earlier work.
The conditions of series [2]: from A. niger CBS120.49; cited from earlier work.
Series [3] in a line: Isoelectric point by isoelectric focusing (IEF) gel. In kind it is physicochemical. As for the experimental part:
Upon native PAGE of a desalted active fraction from HPSEC a single protein band was observed, The isolelectric point of the FAE was determined using Phast gel Dry IEF equilibrated with a solution ampholyte, (20% final concentration, containing a mix of pI 2-4, 80%, pI 3-10 20%) Glycerol (10%) for 1 hour. Separation was performed as per manufacturers recommendation (Pharmacia Biotechnology, Dry IEF instruction bulletin) and stained with coomassie R-250. The sample migrated as a single protein band with an isolelectric point of about 2.8.

Series [4] is described as follows: Activity of purified 38 kD esterase toward natural and synthetic substrates (in words). In kind it is biochemical. The conditions noted are these: purified enzyme. As for the experimental part: (§1) The 38 kD esterase isolated according to Example 1 was analyzed for biochemical properties. […] When the 38 kD esterase was incubated in buffer for 30 minutes without substrate at pH 5.1, the temperature optima was 55° C.

Series [5] in a line: pH and temperature optimum of 38 kD esterase activity on methyl ferulate. It is filed as biochemical. The conditions noted are these: for maximal activity: methyl ferulate. As for the experimental part:
The enzyme sample was chromatographed by hydrophobic interaction chromatography (Poros® HPEM phenyl ether, Perseptive BioSystems, perfusion chromatography, […]). The column was connected to a BioCad® Perfusion Chromatography Workstation (Perseptive BioSystems) and equilibrated with 5 column volumes Tris-HCl (50 mM, pH 7.4) plus 1.2 M ammonium sulfate. The sample (205 ml) was applied to the column and separated at a flow rate of 30 ml/min with a linear gradient from 1.2 M to 200 mM ammonium sulfate over 20 column volumes. […] Four fractions eluting at 750 mM ammonium sulfate contained 83% of the starting FAE activity. Active fractions were pooled (60 ml), dialysed by ultrafiltration into start buffer for next chromatographic step (10 kDa membrane, 20L of 25 mM sodium acetate buffer pH 5.0). The sample was concentrated to 10 ml in preparation for ion exchange chromatography.
as §1

Substrate in series [6]: COC(=O)/C=C/c1ccc(O)c(OC)c1
The experiment in a line: purified protein, by the assay type. Particulars: other: substrate of purified 38 kD esterase.

Substrate in series [7]: COc1cc(/C=C/C(=O)OC[C@@H]2O[C@@H](O[C@@H]3[C@@H](O)[C@H](O[C@@H]4COC(O)[C@H](O)[C@H]4O)OC[C@H]3O[C@@H]3OC[C@@H](O)[C@H](O)[C@H]3O)[C@H](O)[C@H]2O)ccc1O
Put plainly: purified protein, by the assay type. Particulars: other: substrate of purified 38 kD esterase.

Substrate in series [8]: COc1cc(/C=C/C(=O)OC[C@@H]2O[C@@H](O[C@@H]3[C@@H](O)[C@H](O[C@@H]4COC(O)[C@H](O)[C@H]4O)OC[C@H]3O)[C@H](O)[C@H]2O)ccc1O
The experiment in a line: purified protein, by the assay type. The conditions noted are these: other: substrate of purified 38 kD esterase.

Substrate in series [9]: COc1cc(/C=C/C(=O)OC[C@@H]2O[C@@H](O[C@H]3[C@H](O)COC(O)[C@@H]3O)[C@H](O)[C@H]2O)ccc1O
The experiment in a line: purified protein, by the assay type. The conditions noted are these: other: substrate of purified 38 kD esterase.

As to `OC[C@H]1O[C@@H](Oc2ccc3cc(Br)ccc3c2)[C@H](O)[C@@H](O)[C@@H]1O` [6-Br-2-naphthyl-βD-glucopyranoside], the Activity entry on 38 kD esterase (pH 5.4) is recorded as “(+++)”.
For the molecule `COc1ccccc1NC(=O)c1cc2cc(Br)ccc2cc1OP(=O)(O)O` [Naphthol-AS-BI-phosphate], the Activity result at 38 kD esterase (pH 5.4) was “(++)”.
In the case of `OC[C@H]1O[C@H](Oc2ccc3ccccc3c2)[C@H](O)[C@@H](O)[C@@H]1O` [2-naphthyl-αD-glucopyranoside], on 38 kD esterase (pH 5.4), the Activity entry was “(+)”.
As to `CCCC(=O)Oc1ccc2ccccc2c1` [2-naphthyl butyrate], the Activity entry at 38 kD esterase (pH 6.5) is recorded as “(+++)”.
With `O=P(O)(O)Oc1ccc2ccccc2c1` [2-naphthyl phosphate], on 38 kD esterase (pH 5.4), the Activity result is listed as “(+)”.
Turning to `OC[C@H]1O[C@H](Oc2ccc3cc(Br)ccc3c2)[C@H](O)[C@@H](O)[C@H]1O` [6-Br-2-naphthyl-αD-galactopyranoside], the Activity entry at 38 kD esterase (pH 5.4) was “(+++)”.
Consider `OC[C@H]1O[C@@H](Oc2ccc3ccccc3c2)[C@H](O)[C@@H](O)[C@H]1O` [2-naphthyl-βD-galactopyranoside], for which the Activity entry on 38 kD esterase (pH 5.4) is reported as “(++)”.
Consider `CCCCCCCCCCCCCC(=O)Oc1ccc2ccccc2c1` [2-naphthyl myristate], for which the Activity result at 38 kD esterase (pH 7.5) is on record as “(+)”.
The same measure, in the same setting: the result for `CCCCCCCC(=O)Oc1ccc2ccccc2c1` [2-naphthyl caprylate] reads “(++)”.

B1: FAE-III: ferulic acid esterase isolated from Aspergillus niger CBS 120.49 (Faulds et al.) (protein, UniProt O42807 22-281, looked up)
Feruloyl esterase A: ASTQGISEDLYNRLVEMATISQAAYADLCNIPSTIIKGEKIYNAQTDINGWILRDDTSKEIITVFRGTGSDTNLQLDTNYTLTPFDTLPQCNDCEVHGGYYIGWISVQDQVESLVKQQASQYPDYALTVTGHSLGASMAALTAAQLSATYDNVRLYTFGEPRSGNQAFASYMNDAFQVSSPETTQYFRVTHSNDGIPNLPPADEGYAHGGVEYWSVDPYSAQNTFVCTGDEVQCCEAQGGQGVNDAHTTYFGMTSGACTW
B1: in series [1], the pI is given as 3.3. Further, in series [2], the pH optimum is given as 5 and the temperature optimum is 55-60 °C.

B2: 38 kD esterase: esterase derived from Aspergillus niger, about 38 kD on SDS-PAGE, amino acid sequence SEQ. ID NO:28 (protein)
chain: MKQFSAKHVLAVVVTAGHALAASTQGISEDLYSRLVEMATISQAAYADLCNIPSTIIKGEKIYNSQTDINGWILRDDSSKEIITVFRGTGSDTNLQLDTNYTLTPFDTLPQCNGCEVHGGYYIGWVSVQDQVESLVKQQVSQYPDYALTVTGHSLGASLAALTAAQLSATYDNIRLYTFGEPRSGNQAFASYMNDAFQASSPDTTQYFRVTHANDGIPNLPPVEQGYAHGGVEYWSVDPYSAQNTFVCTGDEVQCCEAQGGQGVNNAHTTYFGMTSGACTW
Turning to B2, in series [3], the “pI (isoelectric point)” value is listed as “about 2.8”. Moreover, the “activity toward natural feruloyl and p-coumaroyl esters, cell walls of wheat bran and sugar beet pulp, wheat flour, pentosan fraction, ethyl and methyl esters of ferulic and p-coumaric acid” value in series [4] is listed as “active”. This molecule also returned a temperature optimum in series [5] (250 μM methyl ferulate present) of 65 °C. Moreover, the values for the maximal activity in series [5] (pH 3) and in series [5] (pH 8) were 83% and 25%, respectively.

B3: 38 kD esterase (Aspergillus awamori) (protein)
chain: ASTQGISEDLYSRLVEMATISQAAYADLCNIPSTIIKGEKIYNSQTDINGWILRDDSSKEIITVFRGTGSDTNLQLDTNYTLTPFDTLPQCNGCEVHGGYYIGWVSVQDQVESLVKQQVSQYPDYALTVTGHSLGASLAALTAAQLSATYDNIRLYTFGEPRSGNQAFASYMNDAFQASSPDTTQYFRVTHANDGIPNLPPVEQGYAHGGVEYWSVDPYSAQNTFVCTGDEVQCCEAQGGQGVNNAHTTYFGMTSGACTW
For the molecule B3, the Km amounted to 2080 µM in [6], 52 µM in series [7], 19 µM in [8] and 78 µM in [9]. Besides, the Vmax came to 87 µmol/min/mg in [6], 307 µmol/min/mg in series [7], 498 µmol/min/mg in series [8] and 276 µmol/min/mg in series [9].

The Km is the substrate concentration at which the rate is half of its maximum. As usually defined, the Vmax is the rate approached at saturating substrate.
